For four molecules, pKd results are on record in paper PMC9482650, “Quantitative fragmentomics allow affinity mapping of interactomes” (Nature Communications, 2022).

Targets include DLG2_3, Q15700; DLG5_1, Q8TDM6; GOPC, Q9HD26; GRASP, Q7Z6J2; GRID2IP_2, A4D2P6; GRIP2_4, Q9C0E4; Inadl_1, Q8NI35; Inadl_2, Q8NI35; LAP2, Q96RT1; MAGI1_2, Q96QZ7; SCRIB_2, Q14160; TJP1_2, Q07157.
What all share (assay): holdup assay
Common to all, as to parameters: key: below the threshold = too weak to quantify, mostly under pKd 3.1 to 4
Holding throughout (settings): plain residues with an end cap or a label only (N-terminal biotin on a linker: ado-ado)

Another assay has as its target T1, APBA1_1, Q02410.
T1 sequence (Q02410 651-752, limits assumed, looked up): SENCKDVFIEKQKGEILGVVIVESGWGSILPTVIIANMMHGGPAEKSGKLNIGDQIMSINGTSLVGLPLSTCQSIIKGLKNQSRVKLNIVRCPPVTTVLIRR

The next assay has as its target T2, APBA2_2, Q99767.
T2 sequence (Q99767 654-744, limits assumed, looked up): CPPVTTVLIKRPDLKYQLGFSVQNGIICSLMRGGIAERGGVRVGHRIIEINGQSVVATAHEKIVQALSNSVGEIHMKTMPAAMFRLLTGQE

Another assay addresses T3, ARHGEF11, O15085.
T3 sequence (O15085 42-136, limits assumed, looked up): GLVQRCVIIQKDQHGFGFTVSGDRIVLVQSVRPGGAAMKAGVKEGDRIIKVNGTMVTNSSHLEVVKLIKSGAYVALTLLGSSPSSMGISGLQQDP

In the next assay the target is T4, DLG3_2, Q92796.
T4 sequence (Q92796 221-321, limits assumed, looked up): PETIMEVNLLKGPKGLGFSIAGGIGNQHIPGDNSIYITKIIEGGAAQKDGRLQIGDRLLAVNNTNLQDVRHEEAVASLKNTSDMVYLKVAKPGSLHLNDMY

For another assay, the target named is T5, DLG3_3, Q92796.
T5 sequence (Q92796 374-475, limits assumed, looked up): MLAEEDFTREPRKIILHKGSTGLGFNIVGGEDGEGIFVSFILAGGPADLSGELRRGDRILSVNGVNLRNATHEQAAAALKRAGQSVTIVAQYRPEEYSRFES

The target of another assay is T6, GRIP1_2, Q9Y3R0.
T6 sequence (Q9Y3R0 145-248, limits assumed, looked up): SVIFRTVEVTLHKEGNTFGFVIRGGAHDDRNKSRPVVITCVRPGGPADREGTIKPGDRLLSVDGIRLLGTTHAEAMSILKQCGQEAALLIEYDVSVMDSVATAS

A further assay deals with T7, GRIP1_3, Q9Y3R0.
T7 sequence (Q9Y3R0 247-346, limits assumed, looked up): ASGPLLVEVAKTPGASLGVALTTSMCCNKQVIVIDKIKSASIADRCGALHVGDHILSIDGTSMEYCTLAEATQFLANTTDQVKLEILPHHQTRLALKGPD

A further assay deals with T8, HTRA3, P83110.
T8 sequence (P83110 354-453, limits assumed, looked up): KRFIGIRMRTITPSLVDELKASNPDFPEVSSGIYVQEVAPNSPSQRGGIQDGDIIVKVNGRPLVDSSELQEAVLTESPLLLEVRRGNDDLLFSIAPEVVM

The target in a further assay is T9, MPDZ_12, O75970.
T9 sequence (O75970 1857-1958, limits assumed, looked up): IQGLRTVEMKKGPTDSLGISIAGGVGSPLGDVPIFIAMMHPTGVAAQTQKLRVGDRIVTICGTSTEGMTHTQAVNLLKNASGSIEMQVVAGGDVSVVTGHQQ

For another assay, the target named is T10, MPP6, Q9NZW5.
T10 sequence (Q9NZW5 125-219, limits assumed, looked up): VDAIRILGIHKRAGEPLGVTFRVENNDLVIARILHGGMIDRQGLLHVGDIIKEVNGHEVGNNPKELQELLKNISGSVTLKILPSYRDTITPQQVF

Another assay deals with T11, PARD3B_1, Q8TEW8.
T11 sequence (Q8TEW8 196-299, limits assumed, looked up): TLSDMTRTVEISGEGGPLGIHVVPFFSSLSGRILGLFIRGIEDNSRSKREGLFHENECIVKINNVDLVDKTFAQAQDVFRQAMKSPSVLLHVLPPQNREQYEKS

The next assay concerns the target T12, SHANK1, Q9Y566.
T12 sequence (Q9Y566 658-767, limits assumed, looked up): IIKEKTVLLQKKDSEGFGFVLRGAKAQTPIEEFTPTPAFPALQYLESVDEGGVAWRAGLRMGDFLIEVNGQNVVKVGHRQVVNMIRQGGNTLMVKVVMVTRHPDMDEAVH

GRIP2_4, Q9C0E4, sequence (Q9C0E4 446-548): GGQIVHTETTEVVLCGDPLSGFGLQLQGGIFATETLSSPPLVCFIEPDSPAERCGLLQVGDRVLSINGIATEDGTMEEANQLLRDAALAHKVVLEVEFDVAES
GRASP, Q7Z6J2, sequence (Q7Z6J2 96-193): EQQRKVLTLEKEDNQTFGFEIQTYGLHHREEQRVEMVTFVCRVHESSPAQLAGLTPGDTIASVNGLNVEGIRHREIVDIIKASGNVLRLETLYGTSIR
Inadl_2, Q8NI35, sequence (Q8NI35 238-335): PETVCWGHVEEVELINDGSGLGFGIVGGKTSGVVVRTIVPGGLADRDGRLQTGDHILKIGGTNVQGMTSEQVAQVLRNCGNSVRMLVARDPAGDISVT
MAGI1_2, Q96QZ7, sequence (Q96QZ7 456-580): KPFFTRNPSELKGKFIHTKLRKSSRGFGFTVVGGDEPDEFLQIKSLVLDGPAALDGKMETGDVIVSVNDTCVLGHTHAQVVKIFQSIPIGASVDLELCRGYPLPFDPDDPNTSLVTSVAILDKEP
SCRIB_2, Q14160, sequence (Q14160 857-960): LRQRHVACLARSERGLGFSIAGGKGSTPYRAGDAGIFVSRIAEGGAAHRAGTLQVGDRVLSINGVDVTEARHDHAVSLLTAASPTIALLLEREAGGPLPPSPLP
Inadl_1, Q8NI35, sequence (Q8NI35 113-229): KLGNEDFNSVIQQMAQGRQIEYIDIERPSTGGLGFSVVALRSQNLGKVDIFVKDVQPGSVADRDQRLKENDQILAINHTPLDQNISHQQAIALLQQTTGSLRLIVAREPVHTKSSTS
GRID2IP_2, A4D2P6, sequence (A4D2P6 272-370): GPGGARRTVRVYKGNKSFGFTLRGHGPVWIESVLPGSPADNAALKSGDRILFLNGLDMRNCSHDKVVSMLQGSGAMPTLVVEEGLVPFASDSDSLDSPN
TJP1_2, Q07157, sequence (Q07157 181-274): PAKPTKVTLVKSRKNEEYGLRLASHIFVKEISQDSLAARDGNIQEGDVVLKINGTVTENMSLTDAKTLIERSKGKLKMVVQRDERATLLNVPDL
LAP2, Q96RT1, sequence (Q96RT1 other isoform, or with tags, fused parts or gaps): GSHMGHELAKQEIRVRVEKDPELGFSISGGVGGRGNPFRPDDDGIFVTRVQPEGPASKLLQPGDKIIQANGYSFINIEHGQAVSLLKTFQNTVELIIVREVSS
DLG5_1, Q8TDM6, sequence (Q8TDM6 617-713): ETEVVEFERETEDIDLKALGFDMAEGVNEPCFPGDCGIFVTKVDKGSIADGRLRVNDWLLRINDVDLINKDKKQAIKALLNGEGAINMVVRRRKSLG

One may read the pKd as the Kd on a negative log10 scale, so that one unit is a factor of ten. As to QELLEYETTV [XKR7, Q5GH72], the pKd result is “below the threshold” in the assay with APBA1_1, Q02410; “below the threshold” with APBA2_2, Q99767; 4.56 with ARHGEF11, O15085; 3.55 in the assay with DLG2_3, Q15700; 4.85 in the assay with DLG3_2, Q92796; 3.88 with DLG3_3, Q92796. Also, the pKd with DLG5_1, Q8TDM6 was 3.69; with GOPC, Q9HD26, 3.96; with GRASP, Q7Z6J2, 4.12; with GRID2IP_2, A4D2P6, 3.81; with GRIP1_2, Q9Y3R0, “below the threshold”; with GRIP1_3, Q9Y3R0, “below the threshold”. In addition, the pKd result in the assay with GRIP2_4, Q9C0E4 was “below the threshold”; with HTRA3, P83110, “below the threshold”; with Inadl_1, Q8NI35 it was “below the threshold”; with Inadl_2, Q8NI35, “below the threshold”; with LAP2, Q96RT1 it was 4.56; in the assay with MAGI1_2, Q96QZ7, 3.6. The pKd entry with MPDZ_12, O75970 is “below the threshold”; in the assay with MPP6, Q9NZW5, “below the threshold”; with PARD3B_1, Q8TEW8 it was “below the threshold”; in the assay with SCRIB_2, Q14160, 4.42; in the assay with SHANK1, Q9Y566, 4.44; with TJP1_2, Q07157, “below the threshold”.

Regarding REVVMRVTTV [MARCHF9, Q86YJ5], the pKd result was “below the threshold” in the assay with APBA1_1, Q02410; “below the threshold” with APBA2_2, Q99767; 4.65 with ARHGEF11, O15085; 4.92 in the assay with DLG2_3, Q15700; 5.23 with DLG3_2, Q92796; 4.64 with DLG3_3, Q92796. Moreover, the pKd entry with DLG5_1, Q8TDM6 was “below the threshold”; with GOPC, Q9HD26 it was 4.9; with GRASP, Q7Z6J2, 4.57; with GRID2IP_2, A4D2P6, 4.13; with GRIP1_2, Q9Y3R0 it was “below the threshold”; in the assay with GRIP1_3, Q9Y3R0, “below the threshold”. Further, the pKd entry was “below the threshold” in the assay with GRIP2_4, Q9C0E4; 3.64 in the assay with HTRA3, P83110; “below the threshold” in the assay with Inadl_1, Q8NI35; “below the threshold” with Inadl_2, Q8NI35; 3.87 with LAP2, Q96RT1; 4.84 in the assay with MAGI1_2, Q96QZ7. The pKd result is “below the threshold” in the assay with MPDZ_12, O75970; 3.63 with MPP6, Q9NZW5; “below the threshold” in the assay with PARD3B_1, Q8TEW8; 4.15 with SCRIB_2, Q14160; “below the threshold” with SHANK1, Q9Y566; “below the threshold” with TJP1_2, Q07157.

Turning to VISERNSTTV [C3AR1, Q16581], the pKd entry was “below the threshold” with APBA1_1, Q02410; “below the threshold” with APBA2_2, Q99767; 4.45 with ARHGEF11, O15085; 3.8 in the assay with DLG2_3, Q15700; 4.42 with DLG3_2, Q92796; “below the threshold” with DLG3_3, Q92796. The pKd result in the assay with DLG5_1, Q8TDM6 is “below the threshold”; in the assay with GOPC, Q9HD26, 3.92; in the assay with GRASP, Q7Z6J2 it was 4.37; with GRID2IP_2, A4D2P6, 3.66; with GRIP1_2, Q9Y3R0 it was “below the threshold”; with GRIP1_3, Q9Y3R0 it was “below the threshold”. Moreover, the pKd result was “below the threshold” with GRIP2_4, Q9C0E4; “below the threshold” in the assay with HTRA3, P83110; “below the threshold” in the assay with Inadl_1, Q8NI35; “below the threshold” with Inadl_2, Q8NI35; “below the threshold” in the assay with LAP2, Q96RT1; 4.4 with MAGI1_2, Q96QZ7. Also, the negative logarithm of the Kd (pKd) entry is “below the threshold” in the assay with MPDZ_12, O75970; “below the threshold” with MPP6, Q9NZW5; “below the threshold” with PARD3B_1, Q8TEW8; 3.71 with SCRIB_2, Q14160; 3.49 in the assay with SHANK1, Q9Y566; “below the threshold” with TJP1_2, Q07157.

For WRSKRTDTLL [RAMP3, O60896], the pKd result with APBA1_1, Q02410 was “below the threshold”; in the assay with APBA2_2, Q99767, “below the threshold”; with ARHGEF11, O15085 it was 3.47; with DLG2_3, Q15700, “below the threshold”; in the assay with DLG3_2, Q92796, “below the threshold”; with DLG3_3, Q92796, “below the threshold”. Further, the pKd entry with DLG5_1, Q8TDM6 is “below the threshold”; in the assay with GOPC, Q9HD26 it was 3.61; in the assay with GRASP, Q7Z6J2 it was “below the threshold”; in the assay with GRID2IP_2, A4D2P6 it was “below the threshold”; with GRIP1_2, Q9Y3R0, “below the threshold”; with GRIP1_3, Q9Y3R0 it was “below the threshold”. For the same molecule, the pKd entry with GRIP2_4, Q9C0E4 is “below the threshold”; with HTRA3, P83110, “below the threshold”; with Inadl_1, Q8NI35, “below the threshold”; with Inadl_2, Q8NI35, “below the threshold”; with LAP2, Q96RT1, “below the threshold”; in the assay with MAGI1_2, Q96QZ7, 4.43. Also, the pKd result in the assay with MPDZ_12, O75970 is “below the threshold”; in the assay with MPP6, Q9NZW5 it was 3.75; with PARD3B_1, Q8TEW8, 4.32; in the assay with SCRIB_2, Q14160, “below the threshold”; with SHANK1, Q9Y566, “below the threshold”; with TJP1_2, Q07157, 3.55.
